B1: GST-Miro1 WT [not stated] / KIF5C [modified: 35S-methionine label; 35S-methionine label] [not stated] (parent)
chain 1: MKKDVRILLVGEPRVGKTSLIMSLVSEEFPEEVPPRAEEITIPADVTPERVPTHIVDYSEAEQSDEQLHQEISQANVICIVYAVNNKHSIDKVTSRWIPLINERTDKDSRLPLILVGNKSDLVEYSSMETILPIMNQYTEIETCVECSAKNLKNISELFYYAQKAVLHPTGPLYCPEEKEMKPACIKALTRIFKISDQDNDGTLNDAELNFFQRICFNTPLAPQALEDVKNVVRKHISDGVADSGLTLKGFLFLHTLFIQRGRHETTWTVLRRFGYDDDLDLTPEYLFPLLKIPPDCTTELNHHAYLFLQSTFDKHDLDRDCALSPDELKDLFKVFPYIPWGPDVNNTVCTNERGWITYQGFLSQWTLTTYLDVQRCLEYLGYLGYSILTEQESQASAVTVTRDKKIDLQKKQTQRNVFRCNVIGVKNCGKSGVLQALLGRNLMRQKKIREDHKSYYAINTVYVYGQEKYLLLHDISESEFLTEAEIICDVVCLVYDVSNPKSFEYCARIFKQHFMDSRIPCLIVAAKSDLHEVKQEYSISPTDFCRKHKMPPPQAFTCNTADAPSKDIFVKLTTMAMYPHVTQADLKSSTFWLRASFGATVFAVLGFAMYKALLKQR
chain 2: MADPAECSIKVMCRFRPLNEAEILRGDKFIPKFKGDETVVIGQGKPYVFDRVLPPNTTQEQVYNACAKQIVKDVLEGYNGTIFAYGQTSSGKTHTMEGKLHDPQLMGIIPRIAHDIFDHIYSMDENLEFHIKVSYFEIYLDKIRDLLDVSKTNLAVHEDKNRVPYVKGCTERFVSSPEEVMDVIDEGKANRHVAVTNMNEHSSRSHSIFLINIKQENVETEKKLSGKLYLVDLAGSEKVSKTGAEGAVLDEAKNINKSLSALGNVISALAEGTKTHVPYRDSKMTRILQDSLGGNCRTTIVICCSPSVFNEAETKSTLMFGQRAKTIKNTVSVNLELTAEEWKKKYEKEKEKNKTLKNVIQHLEMELNRWRNGEAVPEDEQISAKDQKNLEPCDNTPIIDNIAPVVAGISTEEKEKYDEEISSLYRQLDDKDDEINQQSQLAEKLKQQMLDQDELLASTRRDYEKIQEELTRLQIENEAAKDEVKEVLQALEELAVNYDQKSQEVEDKTRANEQLTDELAQKTTTLTTTQRELSQLQELSNHQKKRATEILNLLLKDLGEIGGIIGTNDVKTLADVNGVIEEEFTMARLYISKMKSEVKSLVNRSKQLESAQMDSNRKMNASERELAACQLLISQHEAKIKSLTDYMQNMEQKRRQLEESQDSLSEELAKLRAQEKMHEVSFQDKEKEHLTRLQDAEEMKKALEQQMESHREAHQKQLSRLRDEIEEKQKIIDEIRDLNQKLQLEQEKLSSDYNKLKIEDQEREMKLEKLLLLNDKREQAREDLKGLEETVSRELQTLHNLRKLFVQDLTTRVKKSVELDNDDGGGSAAQKQKISFLENNLEQLTKVHKQLVRDNADLRCELPKLEKRLRATAERVKALESALKEAKENAMRDRKRYQQEVDRIKEAVRAKNMARRAHSAQIAKPIRPGHYPASSPTAVHAIRGGGGSSSNSTHYQK

The experiment covers variants of B1. Briefly: GST pull-down of in vitro translated 35S-labeled protein. To be noted: with KIF5C [modified: 35S-methionine label, 2 mM Ca2+, normalized to 100 at 0 mM Ca2+, parent: 70, read off a plot.
With chain 1 E208K E328K, the screen value amounted to 98.

These data come from paper PMC2670979.
